Earlier results on two substances are cited in paper PMC5490247.

The term Kd denotes the equilibrium constant for the complex coming apart.

Data set [1] has as its target IL-6R (Homo sapiens) (UniProt P08887).
Data set [2] shares this target. This is another data set of the same source.

Read-outs that look alike come from different tables or passages of the source.

Chain of UniProt P08887 (P08887 20-355): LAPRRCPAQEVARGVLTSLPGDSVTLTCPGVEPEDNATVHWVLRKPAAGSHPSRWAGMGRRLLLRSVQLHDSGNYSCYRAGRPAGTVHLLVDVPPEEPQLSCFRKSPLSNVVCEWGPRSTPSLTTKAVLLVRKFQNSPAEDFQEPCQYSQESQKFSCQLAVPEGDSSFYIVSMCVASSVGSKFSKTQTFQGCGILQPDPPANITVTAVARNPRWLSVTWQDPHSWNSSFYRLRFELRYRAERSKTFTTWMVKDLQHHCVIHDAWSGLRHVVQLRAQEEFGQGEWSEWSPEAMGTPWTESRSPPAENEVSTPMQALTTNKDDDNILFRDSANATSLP

Take Tocilizumab: the Kd in data set [1] is 2.54 nM. As to IL-6 (from UniProt P05231), the Kd in data set [2] is 1 nM.
